Source: PMC6847799, “A global functional analysis of missense mutations reveals two major hotspots in the PALB2 tumor suppressor” (Nucleic Acids Research, 2019)

Biological target: T1, GAL4DBD-BRCA1 wild-type (aa 1315–1863) (UniProt P38398 1315-1863)
T1 construct: BRCA1, aa 1315-1863; bait of the mammalian two-hybrid; source: HEK293FT, transfected (mammalian two-hybrid fusion)
Assay: two-hybrid; mammalian two-hybrid in HEK293FT cells: VP16 AD-PALB2 N- or C-terminal construct (prey) co-transfected with GAL4DBD-BRCA1 or GAL4DBD-BRCA2 (bait), pG5Luc reporter and pGR-TK internal control; dual-luciferase read 24 h post-transfection; mean percentage luciferase activity of 3 independent experiments
Conditions: partners not purified

T1 sequence (P38398 1315-1863): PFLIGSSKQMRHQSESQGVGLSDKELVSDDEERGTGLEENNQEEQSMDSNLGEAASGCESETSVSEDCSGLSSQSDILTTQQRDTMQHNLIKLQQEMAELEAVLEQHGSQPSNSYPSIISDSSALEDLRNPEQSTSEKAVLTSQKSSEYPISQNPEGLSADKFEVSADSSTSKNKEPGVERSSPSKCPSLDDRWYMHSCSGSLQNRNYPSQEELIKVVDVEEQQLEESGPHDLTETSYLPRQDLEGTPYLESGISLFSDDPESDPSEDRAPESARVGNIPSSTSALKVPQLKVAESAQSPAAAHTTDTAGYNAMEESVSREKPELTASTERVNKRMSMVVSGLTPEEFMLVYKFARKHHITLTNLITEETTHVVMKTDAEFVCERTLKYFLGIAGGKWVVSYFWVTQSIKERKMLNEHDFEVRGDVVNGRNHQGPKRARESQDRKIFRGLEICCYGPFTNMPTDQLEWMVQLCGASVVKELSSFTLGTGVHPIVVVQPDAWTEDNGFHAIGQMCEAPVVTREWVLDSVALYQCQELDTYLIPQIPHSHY

B1: VP16 AD-PALB2 N-terminal wild-type (aa 1–319) (domain or fragment, human, UniProt Q86YC2 1-319, looked up)
chain: MDEPPGKPLSCEEKEKLKEKLAFLKREYSKTLARLQRAQRAEKIKHSIKKTVEEQDCLSQQDLSPQLKHSEPKNKICVYDKLHIKTHLDEETGEKTSITLDVGPESFNPGDGPGGLPIQRTDDTQEHFPHRVSDPSGEQKQKLPSRRKKQQKRTFISQERDCVFGTDSLRLSGKRLKEQEEISSKNPARSPVTEIRTHLLSLKSELPDSPEPVTEINEDSVLIPPTAQPEKGVDTFLRRPNFTRATTVPLQTLSDSGSSQHLEHIPPKGSSELTTHDLKNIRFTSPVSLEAQGKKMTVSTDNLLVNKAISKSGQLPTSS
notes: PALB2 (1186-amino acid protein), human, aa 1-319; cloned in pVP16 downstream of the VP16 AD cassette; prey; also called PALB2 WT; PALB2 N-terminal construct; source: HEK293FT, transfected (mammalian two-hybrid fusion)
fold increase of luciferase-reporter activity over BRCA1 alone: 2 fold
